In the supplement of paper PMC10899765:

How the values were obtained:
Details in all cases: 20 nM; 72 h
MCF10A [1] = test: one-nucleolus phenotype percent effect (relative to siNT 0% and siNOL11 100%); higher = more cells with one nucleolus (ribosome biogenesis inhibition)
Experimental: (§1)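 After 72 h, cells were fixed and stained with Hoechst and anti-fibrillarin, and nucleoli per nucleus were counted with CellProfiler. Values are plate-adjusted percent effect for the one-nucleolus and 5+ nucleoli phenotypes, normalised to siNT (0%) and to the positive controls siNOL11 or siKIF11 (100%), as the mean of biological triplicates. Percent viability is the nuclei count relative to siNT.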

MCF10A [2] = test: 5+ nucleoli phenotype percent effect (relative to siNT 0% and siKIF11 100%); higher = more cells with five or more nucleoli
Experimental: as §1

MCF10A [3] = test: percent viability (nuclei count relative to siNT); higher = more viable cells
Experimental: as §1

| Sequence | one-nucleolus phenotype percent effect (MCF10A [1]) [%] | 5+ nucleoli phenotype percent effect (MCF10A [2]) [%] | percent viability (MCF10A [3]) [%] |
| --- | --- | --- | --- |
| GUAGGGGAGGUUGGGCCAGGGA [hsa-miR-6824-5p] | -25.3 | 39.2 | 78.1 |
| GUAGGGGCGUCCCGGGCGCGCGGG [hsa-miR-6789-5p] | -25.6 | 28.1 | 77.1 |
| GUAGGUGACAGUCAGGGGCGG [hsa-miR-6800-5p] | 1.11 | -0.87 | 33.9 |
| GUAUACACCUGAUAUGUGUAUG [hsa-miR-4789-5p] | -15.8 | 17.3 | 67.5 |
| GUCACUGAUGUCUGUAGCUGAG [hsa-miR-4420] | -18.2 | 1.76 | 87.4 |
| GUCAUACACGGCUCUCCUCUCU [hsa-miR-485-3p] | -9.37 | -1.94 | 54.4 |
| GUCCACUUCUGCCUGCCCUGCC [hsa-miR-4436b-5p] | -10.1 | -0.992 | 51.1 |
| GUCCAGUUUUCCCAGGAAUCCCU [hsa-miR-145-5p] | -4.84 | -1.55 | 70.4 |
| GUCCCUCUCCAAAUGUGUCUUG [hsa-miR-642a-5p] | -27.9 | 55.6 | 120 |
| GUCCCUGAGUGUAUGUGGUG [hsa-miR-670] | -27.4 | 48 | 47.5 |
| GUCCGCUCGGCGGUGGCCCA [hsa-miR-572] | -16.2 | -5.13 | 96 |
| GUCCUAGGAGGCUCCUCUG [hsa-miR-5571-3p] | 6.57 | -30 | 66.3 |
| GUCCUCCAGGCCAUGAGCUGCGG [hsa-miR-4691-5p] | -11.3 | 47.9 | 89.2 |
| GUGAAAUGUUUAGGACCACUAG [hsa-miR-203a] | 10.2 | 3.03 | 40.9 |
| GUGAACGGGCGCCAUCCCGAGG [hsa-miR-887] | -1.47 | -3.19 | 73.2 |
| GUGAAGGCCCGGCGGAGA [hsa-miR-6126] | -11.8 | -28.6 | 77.8 |
| GUGAAUUACCGAAGGGCCAUAA [hsa-miR-183-3p] | 9.97 | -32 | 56.8 |
| GUGACAUCACAUAUACGGCAGC [hsa-miR-489] | 53.7 | -33.1 | 22.4 |
| GUGACUGAUACCUUGGAGGCAU [hsa-miR-4439] | -2.03 | -27.6 | 56.4 |
| GUGAGACUUCUCUCCCUUCAG [hsa-miR-6864-3p] | 14.5 | -9.96 | 41.4 |
| GUGAGCCAGUGGAAUGGAGAGG [hsa-miR-6807-5p] | -20.6 | 16.4 | 74.2 |
| GUGAGGACUCGGGAGGUGG [hsa-miR-1224-5p] | 16.9 | -12.6 | 53.3 |
| GUGAGGAGGGGCUGGCAGGGAC [hsa-miR-6858-5p] | -12.2 | 7.04 | 84.1 |
| GUGAGGCGGGGCCAGGAGGGUGUGU [hsa-miR-6765-5p] | -21.4 | 16 | 72.9 |
| GUGAGGGACUGGGAUUUGUGG [hsa-miR-6834-5p] | -28.7 | 23.5 | 81.4 |
| GUGAGGGCAUGCAGGCCUGGAUGGGG [hsa-miR-1226-5p] | -14.2 | 53.3 | 114 |
| GUGAGUAGUGGCGCGCGGCGGC [hsa-miR-6869-5p] | 12.6 | -16.7 | 32.4 |
| GUGAGUCAGGGUGGGGCUGG [hsa-miR-937-5p] | 19.2 | -10.1 | 41.5 |
| GUGAGUCUCUAAGAAAAGAGGA [hsa-miR-627] | -10.4 | 7.75 | 62.9 |
| GUGAGUGGGAGCCCCAGUGUGUG [hsa-miR-1238-5p] | -21.4 | 22.1 | 95.1 |
